Experimental data: patent US20040126856A1, “Factor ixa: factor Vllla interaction and methods therefor” (priority 2004, published 2004)
No end group written: not given here.

Key:
factor VIIIa = molecular target: T1, factor VIIIa (Homo sapiens, UniProt P00451); assay: EC50 for factor IXa-factor VIIIa interaction in the tenase complex; format: biochemical; settings: 0.07 nM factor VIIIa, 480 nM factor X, 10 μM PL, 5 mM CaCl2; read-out: EC50 (functional Kd) for factor IXa-factor VIIIa interaction
T1 construct: to yield factor VIIIa, a heterotrimer composed of A1, A2 and A3-C1-C2 subunits; cleaved by thrombin at R372-S373, R740-S741, and R1689-S1690 to yield factor VIIIa
T1 sequence (P00451 20-391): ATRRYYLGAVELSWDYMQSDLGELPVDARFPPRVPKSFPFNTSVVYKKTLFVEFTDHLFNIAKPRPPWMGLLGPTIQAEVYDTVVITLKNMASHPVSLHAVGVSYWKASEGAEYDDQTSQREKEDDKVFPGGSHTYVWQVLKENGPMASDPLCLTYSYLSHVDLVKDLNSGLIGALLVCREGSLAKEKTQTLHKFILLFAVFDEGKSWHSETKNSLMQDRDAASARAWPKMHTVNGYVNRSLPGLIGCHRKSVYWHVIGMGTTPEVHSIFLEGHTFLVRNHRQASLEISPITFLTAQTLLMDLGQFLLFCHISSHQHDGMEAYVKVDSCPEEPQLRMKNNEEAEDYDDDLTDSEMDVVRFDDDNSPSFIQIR
T1 sequence (P00451 392-759): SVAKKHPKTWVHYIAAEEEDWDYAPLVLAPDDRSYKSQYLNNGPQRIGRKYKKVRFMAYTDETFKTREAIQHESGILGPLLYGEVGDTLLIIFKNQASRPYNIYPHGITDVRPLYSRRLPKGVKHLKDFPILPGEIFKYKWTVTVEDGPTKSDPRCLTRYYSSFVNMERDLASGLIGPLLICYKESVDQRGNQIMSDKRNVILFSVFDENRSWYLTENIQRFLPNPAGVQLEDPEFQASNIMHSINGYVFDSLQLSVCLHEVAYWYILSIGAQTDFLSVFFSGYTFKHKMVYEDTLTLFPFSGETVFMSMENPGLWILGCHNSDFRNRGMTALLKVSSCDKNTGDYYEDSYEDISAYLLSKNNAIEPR
T1 sequence (P00451 1709-2351): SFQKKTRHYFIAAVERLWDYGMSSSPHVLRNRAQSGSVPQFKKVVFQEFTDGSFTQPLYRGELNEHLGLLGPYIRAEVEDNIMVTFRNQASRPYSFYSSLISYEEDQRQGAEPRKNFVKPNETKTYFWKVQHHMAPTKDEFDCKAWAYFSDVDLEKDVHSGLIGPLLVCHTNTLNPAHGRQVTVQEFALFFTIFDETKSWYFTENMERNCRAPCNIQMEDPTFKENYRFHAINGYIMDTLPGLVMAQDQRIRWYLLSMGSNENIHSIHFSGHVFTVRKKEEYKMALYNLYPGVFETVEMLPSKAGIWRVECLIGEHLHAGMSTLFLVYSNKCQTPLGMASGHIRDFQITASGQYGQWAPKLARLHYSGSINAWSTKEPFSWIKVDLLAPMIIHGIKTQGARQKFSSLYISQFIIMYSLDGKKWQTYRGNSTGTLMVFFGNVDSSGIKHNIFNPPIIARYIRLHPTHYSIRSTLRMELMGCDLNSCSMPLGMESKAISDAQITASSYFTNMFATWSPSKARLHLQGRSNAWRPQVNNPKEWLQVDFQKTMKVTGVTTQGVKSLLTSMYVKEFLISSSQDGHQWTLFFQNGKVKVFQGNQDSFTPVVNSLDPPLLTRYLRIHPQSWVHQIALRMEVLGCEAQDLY
Description: Determination of the EC50 of for Factor IXa-Factor VIIIa Interaction in the Tenase Complex
These experiments are performed with normal factor IXa in the presence of phospholipid (PL) vesicles. 50-μl reaction mixtures in TBS-BSA (50 mM Tris-HCl, pH 7.4, 1 mg/ml BSA) with 5 mM CaCl2 and 10 μM PL are prepared containing a fixed concentration of factor VIIIa (0.07 nM) and various concentrations of factor IXa (0-20 nM) at a constant concentration of factor X (480 nM), which is added last to initiate the reaction. The reaction is carried out at 37° C. for 30-120 seconds at which time 1 μl of 0.5 M EDTA is added to stop further generation of factor Xa. A 40 μl aliquot is added to a 0.1-mL quartz cuvette containing a synthetic substrate S-2222 in 75 μl of TBS-BSA, pH 7.4. The final concentration of S-2222 is 100 μM. The p-nitroaniline release is measured continuously (ΔA405/min) for up to 20 minutes (Mathur et al., 1997). Factor Xa generated is calculated from a standard curve constructed using factor Xa prepared by insolubilized Russell's viper venom. In control experiments, at each factor X concentration used, the rate of factor Xa generation is also measured at various concentrations of normal factor IXa in the absence of factor VIIIa; these control values are ˜5% of the experimental values in the presence of factor VIIIa and are subtracted before analysis of the data. […]

factor Xa generation = settings: Fay et al., 1994; Fay and Koshibu, 1998; cited from earlier work
[1] = molecular target: T2, IXaR333Q:A2 subunit interaction (Homo sapiens, UniProt P00740, R379Q); assay: A2 558-565 peptide inhibition of IXaR333Q:A2 subunit interaction (factor X activation, tenase system); format: biochemical
T2 construct: made in house
Description: (§1) Determination of the Apparent Kdpeptide of Binding of Each Factor IXa to the A2 558-565 Peptide.
(§2) The apparent Kd (termed Kdpeptide) for binding of each factor IXa to the A2 558-565 peptide was determined by its ability to inhibit the respective IXa:A2 subunit interaction as measured by reduction in the rate of factor X activation in the tenase system. The reaction mixtures for both IXaWT and IXaPCEGF1 contained 100 nM factor IXa, 30 nM A2 subunit, 250 nM factor X, and 25 μM PL in TBS/BSA, pH 7.5 with 5 mM CaCl2. The reaction mixture for IXaR333Q contained 300 nM factor IXa instead of 100 nM used for IXaWT or IXaPCEGF1; concentrations of other components were the same. The amount of factor Xa generated was determined by hydrolysis of S-2222. The IC50 values were obtained using Eq. 2. Here, y is the rate of factor Xa formation in the presence of a given concentration of the A2 558-565 peptide represented by x, and a is the maximum rate of factor Xa formation in the absence of the A2 peptide. Eq. 3 was then used to obtain the apparent Kdpeptide values. In this context, A is the concentration of IXaWT, IXaPCEGF1, or IXaR333Q, and EC50 is the apparent KdA2 for the respective IXa:A2 subunit interaction.

[2] = molecular target: IXaPCEGF1:A2 subunit interaction; assay: A2 558-565 peptide inhibition of IXaPCEGF1:A2 subunit interaction (factor X activation, tenase system); format: biochemical, human; settings: 100 nM IXaPCEGF1, 30 nM A2 subunit, 250 nM factor X, 25 μM PL (FIG. 5)
Description: as §1, §2

[3] = molecular target: factor IXaPCEGF1 (factor IXa replacement mutant in which the EGF1 domain is replaced by that of protein C) (human) (UniProt P04070); assay: apparent Kdpeptide against that of WT
[4] = molecular target: T3, factor IXaR333Q (factor IXa point mutant in which Arg333 is replaced by Gln) (human, UniProt P00740 47-190; P00740 227-461, gamma-carboxyglutamic acid residues in the Gla domain (normal Gla content)); assay: peptide inhibition of IXa:A2 interaction; factor Xa generation (FIG. 5)
T3 construct: R333 is c165 in chymotrypsin numbering; also called IXR333Q
Description: (§3) Factor Xa generation was determined by S-2222 hydrolysis, and the curves represent best fit to the IC₅₀ four-parameter logistic equation (Eq. 2).
(§4) The amount of factor Xa generated was determined by hydrolysis of S-2222. The IC₅₀ values were obtained using Eq. 2. […] Eq. 3 was then used to obtain the apparent Kdpeptide values.

[5] = molecular target: factor IXaPCEGF1 (factor IXa replacement mutant in which the EGF1 domain is replaced by that of protein C) (human) (UniProt P04070); assay: peptide inhibition of IXaPCEGF1:A2 in tenase assay (FIG. 5); IC50 converted by Cheng-Prusoff; apparent Kdpeptide
[6] = molecular target: T3, factor IXaR333Q (factor IXa point …); assay: apparent Kdpeptide against that of WT
Source text: Eq. 3 was then used to obtain the apparent Kdpeptide values.
(§5) The Cheng and Prusoff relationship (Cheng and Prusoff, 1973; Craig, 1993) was then used to obtain apparent Kdpeptide values for each factor IXa protein.

[7] = molecular target: factor IXaPCEGF1 (factor IXa replacement mutant in which the EGF1 domain is replaced by that of protein C) (human) (UniProt P04070); assay: peptide inhibition of IXaPCEGF1:A2 interaction; 100 nM IXa, 30 nM A2, 250 nM factor X; factor Xa generation (FIG. 5)
[8] = molecular target: T4, factor IXaWT (wild-type recombinant factor IX activated by factor XIa) (human, UniProt P00740 47-190; P00740 227-461, gamma-carboxyglutamic acid residues in the Gla domain (residues 1-40, 12 Gla; normal Gla content)); assay: peptide inhibition of IXaWT:A2 in tenase assay (FIG. 5); IC50 converted by Cheng-Prusoff; apparent Kdpeptide
T4 construct: Two-chain, disulfide-linked protease; also called IXWT
Description: as §4, §5

[9] = molecular target: T3, factor IXaR333Q (factor IXa point …); assay: peptide inhibition of IXaR333Q:A2 in tenase assay (FIG. 5); IC50 converted by Cheng-Prusoff; apparent Kdpeptide
Description: as §4

[10] = molecular target: factor IXaPCEGF1 (factor IXa replacement mutant in which the EGF1 domain is replaced by that of protein C) (human) (UniProt P04070); assay: calculated from apparent Kdpeptide (RT ln Kd, 298 K)
[11] = molecular target: T3, factor IXaR333Q (factor IXa point …); assay: peptide inhibition of IXaR333Q:A2 interaction; 300 nM IXa, 30 nM A2, 250 nM factor X; factor Xa generation (FIG. 5)
Description: as §3, §4

[12] = molecular target: factor IXaPCEGF1 (factor IXa replacement mutant in which the EGF1 domain is replaced by that of protein C) (human) (UniProt P04070); assay: calculated from apparent Kdpeptide, against WT
[13] = molecular target: T4, factor IXaWT (wild-type recombinant …); assay: peptide inhibition of IXaWT:A2 interaction; 100 nM IXa, 30 nM A2, 250 nM factor X; factor Xa generation (FIG. 5)
Description: as §3, §4

T3 sequence (P00740 47-190, change not shown, form in doubt, chain 1 of 2): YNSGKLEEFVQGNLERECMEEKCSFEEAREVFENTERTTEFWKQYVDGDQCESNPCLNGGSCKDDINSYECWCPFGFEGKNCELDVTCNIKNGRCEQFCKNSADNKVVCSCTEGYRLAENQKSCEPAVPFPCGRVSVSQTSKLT
T3 sequence (P00740 other isoform, or with tags, fused parts or gaps mutant, form in doubt, chain 2 of 2): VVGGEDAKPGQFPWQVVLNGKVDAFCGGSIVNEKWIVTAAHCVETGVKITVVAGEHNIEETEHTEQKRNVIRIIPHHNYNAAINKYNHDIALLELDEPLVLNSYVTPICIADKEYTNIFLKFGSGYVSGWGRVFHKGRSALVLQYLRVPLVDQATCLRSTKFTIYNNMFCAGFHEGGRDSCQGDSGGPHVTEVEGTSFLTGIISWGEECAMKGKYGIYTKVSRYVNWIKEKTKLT
T4 sequence (P00740 47-190, form in doubt, chain 1 of 2): as the sequence (P00740 47-190, change not shown, form in doubt, chain 1 of 2) above
T4 sequence (P00740 227-461, form in doubt, chain 2 of 2): as the sequence (P00740 other isoform, or with tags, fused parts or gaps mutant, form in doubt, chain 2 of 2) above, with Q153R counted along it
T2 sequence (P00740 47-191): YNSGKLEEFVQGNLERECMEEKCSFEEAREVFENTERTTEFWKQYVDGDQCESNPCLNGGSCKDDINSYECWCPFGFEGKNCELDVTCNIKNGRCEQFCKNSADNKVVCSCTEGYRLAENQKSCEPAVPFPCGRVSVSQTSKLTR
T2 sequence (P00740 227-461 R379Q): as the sequence (P00740 other isoform, or with tags, fused parts or gaps mutant, form in doubt, chain 2 of 2) above

normal factor IXa: normal factor IXa used in the tenase complex of Example 2
EC50 (factor VIIIa): ~0.0004 µM

SVDQRGNQ [A2 558-565 peptide]
Effect on factor Xa generation in purified systems (factor Xa generation): inhibit factor Xa generation
Fold higher IC50 for IXaR333Q:A2 than for IXaWT or IXaPCEGF1 [1]: ~9 fold
IC50 [2]: ~8 µM

B1: synthetic peptide corresponding to the A2 subunit residues 558-565 (Ser-Val-Asp-Gln-Arg-Gly-Asn-Gln) (peptide)
peptide: SVDQRGNQ
fold-change in apparent Kd (mutant/WT) [3]: 1 fold
fold higher IC50 than for IXaWT or IXaPCEGF1 [4]: ~9 fold
Kd [5]: 4 µM
fold-change in apparent Kd (mutant/WT) [6]: 15 fold
IC50 [7]: 8 µM
Kd [8]: 4 µM
Kd [9]: 62 µM
Gibbs free energy (delta G° peptide) [10]: 7.36 kcal/mol
IC50 [11]: ~70 µM
change in delta G° between the mutant and WT [12]: 0 kcal/mol
IC50 [13]: ~8 µM
